Laboratory results from doi:10.1101/2021.11.04.467245 (bioRxiv, 2021).

T1: TwinStrep-BICD2 WT (mouse), Q921C5
T1 chain: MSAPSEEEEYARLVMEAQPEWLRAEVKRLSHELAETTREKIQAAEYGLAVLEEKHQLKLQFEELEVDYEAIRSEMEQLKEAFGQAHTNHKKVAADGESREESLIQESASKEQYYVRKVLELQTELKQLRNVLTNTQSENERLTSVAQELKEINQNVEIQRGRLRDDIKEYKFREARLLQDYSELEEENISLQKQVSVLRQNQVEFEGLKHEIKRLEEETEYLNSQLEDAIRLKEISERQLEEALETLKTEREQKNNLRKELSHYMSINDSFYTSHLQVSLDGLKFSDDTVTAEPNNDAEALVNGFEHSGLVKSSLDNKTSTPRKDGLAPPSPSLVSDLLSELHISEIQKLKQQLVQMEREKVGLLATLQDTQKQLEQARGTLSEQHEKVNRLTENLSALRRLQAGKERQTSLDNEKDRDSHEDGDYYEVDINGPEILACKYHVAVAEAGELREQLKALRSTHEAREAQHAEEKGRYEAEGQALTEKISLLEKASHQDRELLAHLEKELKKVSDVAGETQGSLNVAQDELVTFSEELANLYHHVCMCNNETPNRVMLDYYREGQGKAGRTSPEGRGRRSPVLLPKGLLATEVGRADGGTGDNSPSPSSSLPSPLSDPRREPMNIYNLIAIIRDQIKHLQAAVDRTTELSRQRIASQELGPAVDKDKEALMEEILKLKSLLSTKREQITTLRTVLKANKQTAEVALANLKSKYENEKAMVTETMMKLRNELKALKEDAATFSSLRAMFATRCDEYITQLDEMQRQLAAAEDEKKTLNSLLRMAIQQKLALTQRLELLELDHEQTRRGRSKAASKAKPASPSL


Experiments:
[1] = molecular target: T1, TwinStrep-BICD2 WT (mouse), Q921C5; experiment: SEC-MALS; details: remark: other sources report otherwise
SEC-MALS = molecular target: the molecule itself; experiment: SEC-MALS

Binder	stoichiometry N [1]	stoichiometry N (SEC-MALS)
TwinStrep-BICD2 WT, Q921C5 1-820 (natural protein) MSAPSEEEEYARLVMEAQPEWLRAEVKRLSHELAETTREKIQAAEYGLAVLEEKHQLKLQFEELEVDYEAIRSEMEQLKEAFGQAHTNHKKVAADGESREESLIQESASKEQYYVRKVLELQTELKQLRNVLTNTQSENERLTSVAQELKEINQNVEIQRGRLRDDIKEYKFREARLLQDYSELEEENISLQKQVSVLRQNQVEFEGLKHEIKRLEEETEYLNSQLEDAIRLKEISERQLEEALETLKTEREQKNNLRKELSHYMSINDSFYTSHLQVSLDGLKFSDDTVTAEPNNDAEALVNGFEHSGLVKSSLDNKTSTPRKDGLAPPSPSLVSDLLSELHISEIQKLKQQLVQMEREKVGLLATLQDTQKQLEQARGTLSEQHEKVNRLTENLSALRRLQAGKERQTSLDNEKDRDSHEDGDYYEVDINGPEILACKYHVAVAEAGELREQLKALRSTHEAREAQHAEEKGRYEAEGQALTEKISLLEKASHQDRELLAHLEKELKKVSDVAGETQGSLNVAQDELVTFSEELANLYHHVCMCNNETPNRVMLDYYREGQGKAGRTSPEGRGRRSPVLLPKGLLATEVGRADGGTGDNSPSPSSSLPSPLSDPRREPMNIYNLIAIIRDQIKHLQAAVDRTTELSRQRIASQELGPAVDKDKEALMEEILKLKSLLSTKREQITTLRTVLKANKQTAEVALANLKSKYENEKAMVTETMMKLRNELKALKEDAATFSSLRAMFATRCDEYITQLDEMQRQLAAAEDEKKTLNSLLRMAIQQKLALTQRLELLELDHEQTRRGRSKAASKAKPASPSL	2	–
TwinStrep-BICD2 S102D (natural protein) MSAPSEEEEYARLVMEAQPEWLRAEVKRLSHELAETTREKIQAAEYGLAVLEEKHQLKLQFEELEVDYEAIRSEMEQLKEAFGQAHTNHKKVAADGESREEDLIQESASKEQYYVRKVLELQTELKQLRNVLTNTQSENERLTSVAQELKEINQNVEIQRGRLRDDIKEYKFREARLLQDYSELEEENISLQKQVSVLRQNQVEFEGLKHEIKRLEEETEYLNSQLEDAIRLKEISERQLEEALETLKTEREQKNNLRKELSHYMSINDSFYTSHLQVSLDGLKFSDDTVTAEPNNDAEALVNGFEHSGLVKSSLDNKTSTPRKDGLAPPSPSLVSDLLSELHISEIQKLKQQLVQMEREKVGLLATLQDTQKQLEQARGTLSEQHEKVNRLTENLSALRRLQAGKERQTSLDNEKDRDSHEDGDYYEVDINGPEILACKYHVAVAEAGELREQLKALRSTHEAREAQHAEEKGRYEAEGQALTEKISLLEKASHQDRELLAHLEKELKKVSDVAGETQGSLNVAQDELVTFSEELANLYHHVCMCNNETPNRVMLDYYREGQGKAGRTSPEGRGRRSPVLLPKGLLATEVGRADGGTGDNSPSPSSSLPSPLSDPRREPMNIYNLIAIIRDQIKHLQAAVDRTTELSRQRIASQELGPAVDKDKEALMEEILKLKSLLSTKREQITTLRTVLKANKQTAEVALANLKSKYENEKAMVTETMMKLRNELKALKEDAATFSSLRAMFATRCDEYITQLDEMQRQLAAAEDEKKTLNSLLRMAIQQKLALTQRLELLELDHEQTRRGRSKAASKAKPASPSL	–	2
